One block for each binder: values may come before it.
B2: Human Tie2 ECD (residues 23-735 of human Tie2) (receptor, UniProt Q02763 23-735, looked up)
chain: AMDLILINSLPLVSDAETSLTCIASGWRPHEPITIGRDFEALMNQHQDPLEVTQDVTREWAKKVVWKREKASKINGAYFCEGRVRGEAIRIRTMKMRQQASFLPATLTMTVDKGDNVNISFKKVLIKEEDAVIYKNGSFIHSVPRHEVPDILEVHLPHAQPQDAGVYSARYIGGNLFTSAFTRLIVRRCEAQKWGPECNHLCTACMNNGVCHEDTGECICPPGFMGRTCEKACELHTFGRTCKERCSGQEGCKSYVFCLPDPYGCSCATGWKGLQCNEACHPGFYGPDCKLRCSCNNGEMCDRFQGCLCSPGWQGLQCEREGIQRMTPKIVDLPDHIEVNSGKFNPICKASGWPLPTNEEMTLVKPDGTVLHPKDFNHTDHFSVAIFTIHRILPPDSGVWVCSVNTVAGMVEKPFNISVKVLPKPLNAPNVIDTGHNFAVINISSEPYFGDGPIKSKKLLYKPVNHYEAWQHIQVTNEIVTLNYLEPRTEYELCVQLVRRGEGGEGHPGPVRRFTTASIGLPPPRGLNLLPKSQTTLNLTWQPIFPSSEDDFYVEVERRSVQKSDQQNIKVPGNLTSVLLNNLHPREQYVVRARVNTKAQGEWSEDLTAWTLSDILPPQPENIKISNITHSSAVISWTILDGYSISSITIRYKVQGKNEDQHVDVKIKNATITQYQLKGLEPETAYQVDIFAENNIGSSNPAFSHELVTLPES
notes: range 23-735; also called hTie2 ECD; hTie2

Key:
[1] = target: T1, hTie2 Ig3-Fn3 D682C/N691C (constitutive Tie2 dimer) (human, UniProt Q02763 349-738, Covalent homodimer: two copies of this chain joined by two intermolecular disulfide bonds between the introduced cysteines (C682 of one chain with C691 of the other); one copy is given.); experiment: size-exclusion chromatography and negative-stain EM of the complex
T1 construct: The positions count on full-length human Tie2; the Ig3-Fn3 entry is used; also called Tie2 dimeric mutant; hTie2 Ig3-Fn3 N691C/D682C
T1 chain: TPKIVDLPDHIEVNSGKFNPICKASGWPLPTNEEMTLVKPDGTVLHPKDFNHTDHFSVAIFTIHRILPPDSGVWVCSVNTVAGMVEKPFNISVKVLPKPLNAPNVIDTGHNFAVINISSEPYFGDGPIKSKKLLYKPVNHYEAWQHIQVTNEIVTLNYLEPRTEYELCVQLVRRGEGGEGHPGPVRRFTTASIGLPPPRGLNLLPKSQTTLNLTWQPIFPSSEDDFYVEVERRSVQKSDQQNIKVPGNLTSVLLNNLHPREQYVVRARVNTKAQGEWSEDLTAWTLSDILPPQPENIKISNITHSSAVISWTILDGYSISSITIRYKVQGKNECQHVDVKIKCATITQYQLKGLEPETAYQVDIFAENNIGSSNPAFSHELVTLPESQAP
Description: The two residues D682 and N691 involved in the homotypic Fn3-Fn3′ interaction were mutated to cysteines (D682C and N691C) to introduce a disulfide bond (FIGS. 6d and e). […] After removal of aggregates by SEC, the structural arrangement of the resulting complex (peak of the shoulder) was examined using negative-stain electron microscopy (EM) (FIGS. 6f and 7).

[2] = target: B2; experiment: SPR (Biacore T200), hTie2 ECD amine-coupled on CM5, antibody as analyte, 1:1 model
Protocol: HEPES-buffered saline (0.01 M HEPES and 0.15 M NaCl) containing 3 mM EDTA (ethylenediaminetetraacetic acid) and 0.05% (v/v) P20 detergent (HBS-EP+) was used as reaction and running buffer (BR100669, GE Healthcare). Human Tie2 ECD (produced in-house; residues 23-735 of human Tie2, GenBank accession number: AAH35514.2) was immobilized on the surface of a CM5 sensor chip by amine coupling using 10 mM acetate at a pH of 5.5. […] Analytes bound to the sensor chips were dissociated by washing with HBS-EP+running buffer for 300 seconds. Both association (Kₒₙ, M⁻¹s⁻¹) and dissociation (Koff, s⁻¹) constants were measured at 300-second intervals. The equilibrium dissociation constant (KD, M) was calculated as the ratio of off-rate to on-rate (Koff/kₒₙ). Kinetic parameters were determined with the global fitting function of Biacore Insight Evaluation Software using a 1:1-binding model.
After purification, binding kinetics of the obtained antibodies to hTie2 ECD were evaluated using SPR.

[3] = target: the molecule itself; experiment: SEC-MALS (self-association)
[4] = target: B2; experiment: SPR (Biacore), hTie2 ECD immobilised on the chip (y axis 'RU (Tie2 ECD)'), antibody as analyte at 128, 256, 512, 1024 and 2048 nM, 1:1 binding model [panel i]

- binding result [1]: binds
- Kd [2]: 4.2 nM
- koff [2]: 0.0006 s⁻¹
- kon [2]: 140000 M⁻¹ s⁻¹
B1: hTAAB, hTie2-activating mouse monoclonal antibody (mouse IgG1) (antibody, V domains shown)
VH: QVQLQQPGAELVRPGASVKLSCKASGYSFTSYWMNWVKQRPGQGLEWIGMIHPSDSETRLNQKFMDKATLTVDKSSSTAYMQLSSPTSEDSAVYYCARGLYGNSWGQGTLVTVSA
VL: DIQMTQSPSSLSASLGERVSLTCRASQDIGISLNWLQQEPDGTIKRLIYATSSLDSGVPKRFSGSRSGSDYSLTISSLESEDFVDYYCLQYASSPYTFGGGTKLEIK
notes: Mouse IgG1 from hybridoma; Only the variable regions are tied to the whole antibody; also called mouse hTAAB; parental hTAAB

Binder: B2
- binding result [3]: no binding (tested: 1 mg/ml)

- Kd [4]: 1100 nM
- koff [4]: 0.003 s⁻¹
- kon [4]: 2800 M⁻¹ s⁻¹
B3: 3H7H12G4 (previously reported humanized antibody 3H7) (antibody, V domains shown)
VH: QVQLVQSGAEVKKPGASVKVSCKASGYTFTSYWMNWVRQAPGQGLEWMGMIHPSDSETRLNQKFMDRVTMTRDTSTSTVYMELSSLRSEDTAVYYCARGLYGNSWGQGTLVTVSS
VL: DIQMTQSPSSLSASVGDRVTITCRASQDIGISLNWLQQEPGKAPKRLIYATSSLDSGVPKRFSGSGSGTEFTLTISSLQPEDFATYYCLQYASSPYTFGQGTKVEIK
